This is an account of results in US11046988B2, “Process for the modification of a glycoprotein using a β-(1,4)-N-acetylgalactosaminyl transferase or a mutant thereof” (Synaffix B.V., priority 2014, dated 2021).

The data set in a line: Coupled glycosyltransferase assay (R&D Systems Glycosyltransferase Activity Kit, malachite green, 620 nm): transfer of F2-GalNAz to GlcNAc. It is filed as biochemical. The arrangement: Data from the determination of the specific activity: unit not given here. The conditions noted are these: for Data from the determination of the specific activity: GlcNAc 20 mM, UDP-F2-GalNAz 500 μM, 20 min, room temperature, plate read at 620 nm; for specific activity: UDP-F2-GalNAz 500 μM to GlcNAc 20 mM, 5 mM MgCl2 and 5 mM MnCl2, pH 7.5, linear regression; for transferase activity compared with GalT(Y289L): transfer of F2-GalNAz from UDP-F2-GalNAz (18) to GlcNAc, FIG. 7 / FIG. 8. The source says: In brief, the glycosyltransferase kit determines the activity of a particular glycosyltransferase by means of a coupled assay that detects the release of liberated UDP upon transfer of the donor sugar (from the sugar-UDP nucleotide) to an acceptor sugar. In more detail, the UDP that is liberated upon transfer of sugar is hydrolyzed by a particular enzyme (CD39L3/rectonucleoside triphosphate diphosphohydrolase-3, also known as NTPDase-3) thereby generating UMP and one equivalent of phosphate (Pi). The latter phosphate in turn is detected by malachite green, which is also added to the mixture. A green color develops in proportion to the amount of inorganic phosphate released and the absorbance of the color at 620 nm is measured as a direct measure of the activity of the glycosyltransferase. In the present case, transfer of F2-GalNAz from the UDP-substrate to GlcNAc on the protein is accompanied by release of UDP, which is hydrolyzed by CD39L3 and the generated phosphate. Preferably, the derived or wild type β-(1,4)-GalNAcT enzyme used in the process according to the invention has at least 30%, 33%, 50%, 75%, 100%, 150%, 200%, or more preferably at least 300% of the UDP-F2-GalNAz transfer activity as compared to the UDP-F2-GalNAz transfer activity of the β-(1,4)-galactosyltransferase mutant enzyme Bos taurus GalT-Y289L (SEQ ID NO: 1), wherein the transfer activity is assessed using the R&D Systems Glycosyltransferase Activity Kit and applying the conditions as indicated in detail in Example 18 and using equal amounts of the enzyme to be tested and β-(1,4)-galactosyltransferase mutant enzyme Bos taurus GalT-Y289L (SEQ ID NO: 1).
Specific activity of enzymes was determined by a coupled glycosyltransferase procedure as described by Wu et al. in Glycobiology 2010, 21, 723-733, incorporated by reference, and commercially available as a kit from R&D system.
In short, a glycosyltransferase reaction was carried out in 50 μL of reaction buffer (25 mM Tris, 150 mM NaCl, 5 mM MgCl2 and 5 mM MnCl2, pH 7.5) in a 96-well plate at room temperature for 20 min. To determine the kinetic parameters of a glycosyltransferase, multiple reactions with varying amounts of the enzyme were carried out simultaneously (0.01, 0.02, 0.04, 0.06, 0.08, 0.10 and 0.12 μg of enzyme) in the presence of fixed amounts of all other components (GlcNAc: 20 mM, UDP-F2-GalNAz: 500 μM), including the coupling phosphatase 1 (ENTPD3/CD39L3) (2.5 μL of 20 ng/μL solution). A well containing all components except for the enzyme served as a blank control. The reactions were initiated by adding the substrates and phosphatase to the enzyme and terminated by the addition of 30 μL of Malachite reagent A and 100 μL of water to each well. The color was developed by the addition of 30 μL of Malachite reagent B to each well followed by gentle mixing and incubation at room temperature for 20 min. Following color development, the plate was read at 620 nm with a multi-well plate reader. A phosphate standard curve was also performed to determine the conversion factor between the absorbance and the inorganic phosphate contents. Preparation of UDP-F2-GalNAz is described in Example 13.
The specific activity of the GalNAcTs described herein were compared to GalT(Y289L), an enzyme known to transfer UDP-GalNAz as previously disclosed in WO 2007/095506 and WO 2008/029281 (both Invitrogen Corporation).
A graph depicting the conversion (in pmol/min/m) plotted against the amount of enzyme is shown in FIG. 7 (for Table 1) and FIG. 8 (for Table 2). From these plots specific activities were calculated by linear regression. […]

Consider “CeGalNAcT-His: CeGalNAcT(30-383) with C-terminal His6-tag, SEQ ID NO: 14”, for which the specific activity stood at 332 pmol/min/µg and the “transferase activity compared with GalT(Y289L)” value is “significantly higher”. Besides, the “Data from the determination of the specific activity” value (“Data from the determination” for short) (0.01 μg enzyme) amounted to 0.024. The “Data from the determination” value (0.02 μg enzyme) amounted to 0.044. Moreover, the “Data from the determination” value (0.04 μg enzyme) came out at 0.129. Moreover, where the note is “0.06 μg enzyme”, the “Data from the determination” value is listed as 0.161. In addition, the “Data from the determination” value (0.08 μg enzyme) turned out to be 0.191. For the same molecule, the “Data from the determination” value (0.1 μg enzyme) amounted to 0.226. For the setting “0.12 μg enzyme”, the “Data from the determination” value is listed as 0.285.

As to “CeGalNAcT(I257L): truncated C. elegans GalNAcT mutant, isoleucine 257 to leucine, SEQ ID NO: 10”, the specific activity was 381 pmol/min/µg and the “transferase activity compared with GalT(Y289L)” value was “significantly higher”. For the setting “0.01 μg enzyme”, the “Data from the determination” value was 0.02. Besides, the “Data from the determination” value (0.02 μg enzyme) is 0.038. Also, the “Data from the determination” value (0.04 μg enzyme) is 0.081. Under “0.06 μg enzyme”, the “Data from the determination” value was 0.136. Besides, where the note is “0.08 μg enzyme”, the “Data from the determination” value is recorded as 0.153. In addition, under “0.1 μg enzyme”, the “Data from the determination” value is reported as 0.205. For the same molecule, where the note is “0.12 μg enzyme”, the “Data from the determination” value amounted to 0.245.

Consider “CeGalNAcT(I257A): truncated C. elegans GalNAcT mutant, isoleucine 257 to alanine, SEQ ID NO: 12”, for which the specific activity is 240 pmol/min/µg and the “transferase activity compared with GalT(Y289L)” value is given as “significantly higher”. The “Data from the determination” value (0.01 μg enzyme) stood at 0.009. Further, the “Data from the determination” value (0.02 μg enzyme) turned out to be 0.032. In addition, the “Data from the determination” value (0.04 μg enzyme) worked out at 0.049. Also, the “Data from the determination” value (0.06 μg enzyme) is given as 0.078. Further, the “Data from the determination” value (0.08 μg enzyme) was determined as 0.097. Further, the “Data from the determination” value (0.1 μg enzyme) was 0.119. Moreover, the “Data from the determination” value (0.12 μg enzyme) came to 0.152.

B1: GalT(Y289L): β-(1,4)-galactosyltransferase mutant enzyme Bos taurus GalT-Y289L (SEQ ID NO: 1), prior-art comparator (protein)
chain: MKFREPLLGGSAAMPGASLQRACRLLVAVCALHLGVTLVYYLAGRDLRRLPQLVGVHPPLQGSSHGAAAIGQPSGELRLRGVAPPPPLQNSSKPRSRAPSNLDAYSHPGPGPGPGSNLTSAPVPSTTTRSLTACPEESPLLVGPMLIEFNIPVDLKLIEQQNPKVKLGGRYTPMDCISPHKVAIIILFRNRQEHLKYWLYYLHPMVQRQQLDYGIYVINQAGESMFNRAKLLNVGFKEALKDYDYNCFVFSDVDLIPMNDHNTYRCFSQPRHISVAMDKFGFSLPYVQLFGGVSALSKQQFLSINGFPNNYWGWGGEDDDIYNRLAFRGMSVSRPNAVIGKCRMIRHSRDKKNEPNPQRFDRIAHTKETMLSDGLNSLTYMVLEVQRYPLYTKITVDIGTPS
modifications: Bos Taurus GalT Y289L mutant
As to B1, the specific activity was found to be 44 pmol/min/µg. In addition, for the setting “0.01 μg enzyme”, the “Data from the determination” value worked out at 0.005. The “Data from the determination” value (0.02 μg enzyme) was 0.011. Besides, for the setting “0.04 μg enzyme”, the “Data from the determination” value was determined as 0.013. The “Data from the determination” value (0.06 μg enzyme) is given as 0.02. Besides, the “Data from the determination” value (0.08 μg enzyme) came out at 0.027. Further, the “Data from the determination” value (0.1 μg enzyme) was 0.034. For the same molecule, where the note is “0.12 μg enzyme”, the “Data from the determination” value worked out at 0.039.
